Substrate: NCCc1c[nH]c2ccc(O)cc12
Assay: HPLC with fluorescence detection of N-acetylserotonin; Lineweaver-Burk plot
Type: biochemical, Chlamydomonas reinhardtii
Conditions: acetyl-CoA as co-substrate (0.5 mM in the standard assay), 100 mM potassium phosphate, standard assay pH 8.8, 45 °C, 30 min, serotonin 50 to 2000 μM

B1: CrAANAT (Chlamydomonas reinhardtii) (protein)
chain: MAEESLDASVQPLGSTVFFGPVQPEMLDRIHELEAASYPEDEAATYEKLKFRIENASNVFLVALSAEGDGEPKVVGFVCGTQTRASKLTHESMSTHDADGALLCIHSVVVDAALRRRGLATRMLRAYTAFVAATSPGLTGIRLLTKQNLIPLYEGAGFTLLGPSDVEHGADLWYECAMELEAEEEAEAAEA
notes: full length, 191 residues, codon-optimized synthetic gene; N-terminal GST fusion with C-terminal His6 (GST-CrAANAT-His6, pET60), tags kept
For B1, which Km is on record?
The Km was 247 µM.
